{"source": "paper doi:10.1101/2023.01.18.524551", "about": "(bioRxiv, 2023)", "binders": {"B1": {"name": "His6-SUMOstar-C3a (recombinant human C3a, residues 1-77) (ligand)", "chain": "not shown"}}, "target": "T1, C3aR R161A (human, UniProt Q16581 1-482, R161^ECL2A)", "T1 sequence": "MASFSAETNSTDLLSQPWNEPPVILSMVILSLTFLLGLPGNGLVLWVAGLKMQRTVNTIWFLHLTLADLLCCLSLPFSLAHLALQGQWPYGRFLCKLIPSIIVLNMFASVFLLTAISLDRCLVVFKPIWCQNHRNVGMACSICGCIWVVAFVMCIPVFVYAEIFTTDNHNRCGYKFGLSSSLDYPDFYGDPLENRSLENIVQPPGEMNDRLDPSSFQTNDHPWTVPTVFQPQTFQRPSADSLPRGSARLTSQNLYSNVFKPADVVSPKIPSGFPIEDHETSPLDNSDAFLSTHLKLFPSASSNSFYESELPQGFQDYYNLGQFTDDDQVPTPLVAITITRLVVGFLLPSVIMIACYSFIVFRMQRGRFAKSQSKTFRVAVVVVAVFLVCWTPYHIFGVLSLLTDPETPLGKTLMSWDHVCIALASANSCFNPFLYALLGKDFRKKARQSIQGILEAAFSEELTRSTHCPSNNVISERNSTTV", "test": "cell-based or functional assay", "data": [{"binder": "B1", "values": [{"measurement": "decrease of the potency of C3a against the wild type (GloSensor cAMP assay)", "result": "> 100", "unit": "fold"}]}]}
